The chains are these.
T1: 15.5K (His-15.5K) (human, UniProt P55769 1-128)
T1 sequence: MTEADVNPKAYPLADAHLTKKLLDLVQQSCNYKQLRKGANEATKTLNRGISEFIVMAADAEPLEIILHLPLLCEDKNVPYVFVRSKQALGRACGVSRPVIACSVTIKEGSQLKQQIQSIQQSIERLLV

B1: zebrafish U8-4 snoRNA, mature (structured_RNA)
RNA: GUAUCAGUGAGGUUUAUCCUUACCUGUUGUCUUAGAAAUAAGACUGCAGUAUAUGAUGAUUGGAUUCUAUGAAUAUGUGACUAUGUUUGUACUGUAUUUGUACAUGACUUGCAACCUCUUUAUAAAUCCUAUCUGAU
B2: zebrafish U8-5 snoRNA, mature (structured_RNA)
RNA: GCAUCAGUGAGGUUUAUCCUUGCCUGUUGUCUUAGAAUUAAGACUUCAGCACAUGAUGAUUGGAUUCUAUGAAUACAUGAUUAUACUCUGUGUUCAUAUAGGGCUUGUCACCCAUUUAUGAAUCCUGUCUGAU
B3: zebrafish U8-1 snoRNA, mature (structured_RNA)
RNA: GCAUCAGUGAGGUUUAUCCUUACCUGUUGUCUUAGAAAUAAGACUACAGCACAUGAUGAUUGGAUUCUAUGAAUGCGUGAUUAUAUUCUGUAUUCUUAAAGGGUUUGCAACACCUUUAUGAAUCCUGUCUGAU
B4: zebrafish U8-2 snoRNA, mature (structured_RNA)
RNA: ACAUCAGUGAGGUUUGUCCUACCUGUUUUAGAAAUAAGACUUCAGCACAUGAUGAUUGGAUUCUAUGAAUAUGUGAUUAUAUUCUGUAUUCGUAUAGGGUUCACAACUCUGGAUCCUAUGUGAU

The data set addresses T1, 15.5K (His-15.5K). The experiment in a line: EMSA. A general note: Mobility shift assays separate free from complexed probe on a gel.
With B1, the binding result was “binds”.
The result for B2 reads “binds”; that for B3, “binds”; that for B4, “binds”.

Values taken from doi:10.1101/2019.12.12.874594.
